We go through 1 protein from publication PMC3581363 (Biochemistry, 2013).

Usually stoichiometry N stands for the number of molecules, sites or subunits per partner or assembly.

The data set concerns the molecule itself. The data set is described as follows: cross-linking.

B1: sigma-1 receptor cysteine 94 alanine / methionine 170 cysteine (C94A/M170C) double mutant (receptor, guinea pig, UniProt Q60492 1-223, looked up)
chain: MQWAVGRRWLWVALFLAAVAVLTQIVWLWLGTQNFVFQREEIAQLARQYAGLDHELAFSKLIVELRRLHPVHVLPDEELQWVFVNAGGWMGAMALLHASLSEYVLLFGTALGSPRHSGRYWAEISDTIISGTFHQWREGTTKSEVFYPGETVVHGPGEATAVEWGPNTWCVEYGRGVIPSTLGFALADTVFSTQDFLTLFYTLRVYARALQLELTTYLFGQDP
B1: the “stoichiometry N” value amounted to 2.
